Experimental findings from US7960513B2, “Antibody against a human ADAM protease” (Monash University, priority 2004, dated 2011) are described below.

Substitutions are numbered along the chain they refer to.

For test [1], the target named is T1, EphA3 (wild type, expressed in cells) (UniProt P29320 21-983, limits assumed).
T1 construct: whole, on cells; also called wt EphA3; w/t EphA3
T1 sequence (looked up): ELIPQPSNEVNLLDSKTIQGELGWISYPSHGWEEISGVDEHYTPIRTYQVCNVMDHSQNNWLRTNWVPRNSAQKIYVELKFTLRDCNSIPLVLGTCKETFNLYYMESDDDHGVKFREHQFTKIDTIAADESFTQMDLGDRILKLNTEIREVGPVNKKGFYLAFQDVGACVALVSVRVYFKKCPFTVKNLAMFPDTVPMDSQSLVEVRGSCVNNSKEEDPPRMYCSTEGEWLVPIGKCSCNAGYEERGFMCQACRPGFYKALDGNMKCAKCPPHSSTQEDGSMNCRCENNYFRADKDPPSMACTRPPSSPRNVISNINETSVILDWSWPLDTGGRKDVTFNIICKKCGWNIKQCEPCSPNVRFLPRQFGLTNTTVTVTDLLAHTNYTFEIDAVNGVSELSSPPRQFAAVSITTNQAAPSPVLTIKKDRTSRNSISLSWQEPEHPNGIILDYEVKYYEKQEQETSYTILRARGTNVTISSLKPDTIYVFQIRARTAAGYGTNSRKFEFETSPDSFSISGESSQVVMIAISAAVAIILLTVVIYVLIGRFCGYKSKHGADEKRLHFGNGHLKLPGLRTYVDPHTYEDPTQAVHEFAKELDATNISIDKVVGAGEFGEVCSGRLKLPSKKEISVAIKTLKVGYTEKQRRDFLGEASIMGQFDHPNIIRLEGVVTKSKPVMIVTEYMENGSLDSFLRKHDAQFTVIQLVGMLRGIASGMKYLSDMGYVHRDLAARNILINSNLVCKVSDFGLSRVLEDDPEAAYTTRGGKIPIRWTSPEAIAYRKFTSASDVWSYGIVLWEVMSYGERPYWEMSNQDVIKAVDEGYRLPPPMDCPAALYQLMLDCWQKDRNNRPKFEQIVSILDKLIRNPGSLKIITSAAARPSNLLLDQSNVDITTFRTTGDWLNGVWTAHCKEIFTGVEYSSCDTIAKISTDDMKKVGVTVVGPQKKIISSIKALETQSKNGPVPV
In words: anti-EphA3 immunoprecipitation, anti-ADAM10 Western blot. On the procedure:
Cells were cultured in DME/10% FCS and transfected with Lipofectamine 2000 (Invitrogen), and in some experiments treated with the metalloprotease inhibitors 1,10-O-Phenanthroline (OPN, 4h, 1 mM; Mumm et al., 2000, Mol. Cell. 5 197-206) and TAPI1 (1h, 50 µM; Yan et al., 2002, J Cell Biol. 158 221-6). HEK293 cells were transfected with EphA3 (Wicks et al., 1992, Proc. Natl. Acad. Sci. USA 89 1611-1615) or ephrin-A5 (Winslow et al., 1995, Neuron 14 973-81; Lackmann et al., 1996, Proc. Natl. Acad. Sci. USA 93 2523-2527) in pEfBos vectors containing puromycin or gentamycin resistance genes, respectively and stable EphA3/HEK293 or ephrin-A5/HEK293 clones derived accordingly. Serum-starved cells were stimulated (10 min) with 1.5 ug/ml pre-clustered ephrinA5-Fc and harvested, as described previously. Immunoprecipitation was with anti-EphA3 mAb IIIA4 (Boyd et al., 1992, J Biol. Chem. 267 3262-3267. or anti-HA mAb 3F10 (Roche) conjugated to beads, and Western blotting was performed using anti-ADAM10 (Biogenesis, UK), anti-ephrinA5 (R&D Systems) and anti-ephA3 (Lackmann et al., 1997, supra) antibodies.
Initially, we investigated whether ADAM10 interacts with either EphA3 or ephrin-A5 on the cell surface and how these interactions are affected upon Eph/ephrin complex formation. […]

For test [2], the system named is HEK293 cells. As to the kind of experiment: Confocal imaging of co-cultured EphA3-diHcRed/ADAM10 and GFP-ephrin expressing cells. The class given is cell-based, human. As to conditions: co-incubation with GFP-ephrin-A5 or GFP-ephrin-A2 cells for 40 min. On the procedure:
(§1) FIG. 4. Mutation of acidic residues in the ADAM10 Cys-rich domain affects binding to EphA3/ephrin-A5 and cleavage of ephrin-A5. • A. In vitro binding of mutant ADAM10D+C to EphA3/ephrin-A5. ADAM10D+C[EEE-A] containing Alanine substitutions of Glu573, Glu578, Glu579 (lanes 1-4) or ADAM10D+C[RDD-A] (Ala substitutions of Arg525, Asp526, Asp527, lanes 5-8) were incubated alone (lanes 1, 5), or together with EphA3-Fc (lanes 2, 6), ephrin-A5-Fc (lanes 3, 7), or EphA3-Fc and ephrin-A5 (lanes 4, 8). Complexed proteins were extracted with Protein-A-Sepharose beads and analysed as in FIG. 2. • B. Binding of wild-type and mutant ADAM10ΔMP to EphA3 in cells. EphA3/293 cells were transfected with HA-ADAM10ΔMP or HA-ADAM10ΔMP [EEE-A]. Parental and transfected cells were treated for 10 min with or without pre-clustered ephrin-A5-Fc and lysed. Anti-HA and anti-EphA3 immunoprecipitates, and total cell lysates were analysed by Western blotting with indicated antibodies. • C. Ephrin-A5-Fc cleavage in cells expressing wt and 3A mutant ADAM10. EphA3/293 cells were transfected with full length, wild-type (wt) ADAM10, dominant-negative ADAM10ΔMP, or ADAM10 bearing alanine (3A) or 3 lysine (3K) substitutions of Glu573, 578, 579. Following exposure to clustered (+) or non-clustered ? ephrin-A5 Fc, cleaved ephrin was recovered and analysed by Western Blot as described in FIG. 1c. Parallel anti-HA blots of whole-cell lysates reveal the expression levels of ADAM10 constructs. • D. Model of ADAM protein modules and cleavage mechanism. Left, schematic representation of ADAM proteinases protein domain organization; right, schematic representation of the proposed interactions and positioning of ADAM10, EphA3, and Ephrin-A5 between interacting cells, leading to controlled ephrin-cleavage. • E. Ephrin cleavage from the cell surface is blocked by overexpression of 3A-mutant ADAM10. HEK293 cells were co-transfected with (red-fluorescent) EphA3-diHcRed and either wt ADAM10, ADAM10 bearing alanine (3A) substitutions at Glu573, Glu578, and Glu579, or dominant-negative ADAM10ΔMP. […]

For test [3], the system named is EphA3-expressing 293 cells. As to the kind of experiment: Ephrin-A5-Fc cleavage in EphA3/293 cells overexpressing ADAM10 constructs (Western blot of recovered ephrin). As to conditions: overexpression of ADAM10 construct; clustered ephrin-A5-Fc. The class given is cell-based, human. Here is the method: as §1, with “1c.” for “1c. Parallel anti-HA blots of whole-cell lysates reveal the expression levels of ADAM10 constructs. • D. Model of ADAM protein modules and cleavage mechanism. Left, schematic representation of ADAM proteinases protein domain organization; right, schematic representation of the proposed interactions and positioning of ADAM10, EphA3, and Ephrin-A5 between interacting cells, leading to controlled ephrin-cleavage. • E. Ephrin cleavage from the cell surface is blocked by overexpression of 3A-mutant ADAM10. HEK293 cells were co-transfected with (red-fluorescent) EphA3-diHcRed and either wt ADAM10, ADAM10 bearing alanine (3A) substitutions at Glu573, Glu578, and Glu579, or dominant-negative ADAM10ΔMP.”

For test [4], the system named is HEK293 cells. As to the kind of experiment: Confocal imaging of pro-EGF shedding in co-cultured EGFR-GFP/ADAM10 and HA-pro-EGF expressing cells. The class given is cell-based, human. The note with it: co-incubation with HA-pro-EGF cells for 15 min. On the procedure: FIG. 5. Cleavage of cell surface pro-EGF by ADAM10 co-expressed with the EGF receptor requires the intact substrate recognition pocket of ADAM10. HEK293 cells transiently expressing EGFR-GFP and either wild type or 3A mutant ADAM10 (as indicated) were co-incubated with HEK293 cells expressing HA-tagged pro-EGF for 15 min. The cells were then washed, fixed and stained with antibodies against ADAM10 (Alexa^546, red) and HA (Alexa^647, cyan). Arrows indicate EGFR/3A Adam10-expressing cells unable to take up EGF from associated HA-pro-EGF expressing cells (stars); arrowheads indicate cells that have taken up EGF that over-express EGFR and wtAdam10 (bottom panels), or just EGFR (with endogenous Adam10), top panels.
ADAM-mediated ligand cleavage from the cell surface, also referred to as ‘shedding’ has been extensively described as mechanism that facilitates the release of the pro-forms of the EGF-receptor ligands (Blobel, 2005, supra). We were interested to see, if the here described substrate recognition site of ADAM10 would function also to recognise pro-EGF and regulate its shedding from the cell surface. We performed the same confocal imaging approach, using HEK293 cells transfected to express GFP-tagged EGF-receptor, which were co-cultured with cells expressing HA-tagged pro-EGF. […]

B1: endogenous ADAM10 (HEK293 and LiBr melanoma cells) (enzyme, human, UniProt O14672 214-748, looked up)
chain: TTSAEKNTCQLYIQTDHLFFKYYGTREAVIAQISSHVKAIDTIYQTTDFSGIRNISFMVKRIRINTTADEKDPTNPFRFPNIGVEKFLELNSEQNHDDYCLAYVFTDRDFDDGVLGLAWVGAPSGSSGGICEKSKLYSDGKKKSLNTGIITVQNYGSHVPPKVSHITFAHEVGHNFGSPHDSGTECTPGESKNLGQKENGNYIMYARATSGDKLNNNKFSLCSIRNISQVLEKKRNNCFVESGQPICGNGMVEQGEECDCGYSDQCKDECCFDANQPEGRKCKLKPGKQCSPSQGPCCTAQCAFKSKSEKCRDDSDCAREGICNGFTALCPASDPKPNFTDCNRHTQVCINGQCAGSICEKYGLEECTCASSDGKDDKELCHVCCMKKMDPSTCASTGSVQWSRHFSGRTITLQPGSPCNDFRGYCDVFMRCRLVDADGPLARLKKAIFSPELYENIAEWIVAHWWAVLLMGIALIMLMAGFIKICSVHTPSSNPKLPPPKPLPGTLKRRRPPQPIQQPQRQRPRESYQMGHMRR
notes: whole, on cells; Both pro and mature forms are marked on the blot; also called pro (unprocessed) and mature (processed) forms
For B1, in test [1], the binding result is listed as “binds”.

B2: wt-ADAM10: full length, wild-type ADAM10 overexpressed in cells (protein)
chain: TTVAEKNTCQLYIQTDHLFFKYYGTREAVIAQISSHVKAIDTIYQTTDFSGIRNISFMVKRIRINTTADEKDPTNPFRFPNIGVEKFLELNSEQNHDDYCLAYVFTDRDFDDGVLGLAWVGAPSGSSGGICEKSKLYSDGKKKSLNTGIITVQNYGSHVPPKVSHITFAHEVGHNFGSPHDSGTECTPGESKNLGQKENGNYIMYARATSGDKLNNNKFSLCSIRNISQVLEKKRNNCFVESGQPICGNGMVEQGEECDCGYSDQCKDECCYDANQPEGKKCKLKPGKQCSPSQGPCCTAHCAFKSKTEKCRDDSDCAKEGICNGITALCPASDPKPNFTDCNRHTQVCINGQCAGSICEKHGLEECTCASSDGKDDKELCHVCCMKKMEPSTCASTGSVQWNKYFLGRTITLQPGSPCNDFRGYCDVFMRCRLVDADGPLARLKKAIFSPELYENIAEWIVAYWWAVLLMGIALIMLMAGFIKICSVHTPSSNPKLPPPKPLPGTLKRRRPPQPIQQPQRQRPRESYQMGHMRR
modifications: left off: small tags and cut ends
notes: full length, wild-type ADAM10 overexpressed in cells
Turning to B2, the “ephrin cleavage from the cell surface and internalisation” value in the test with HEK293 cells [2] was “readily noticeable”. Also, in test [3], the ephrin-A5 cleavage entry was “did not increase ephrin cleavage above control levels”.

B3: ADAM10 [EEE-A] mutant: full-length ADAM10 with alanine substitutions of Glu573, Glu578 and Glu579 (protein)
chain: B2 chain with E360A, E365A, E366A
modifications: left off: small tags and cut ends
notes: full-length ADAM10 with alanine substitutions of Glu573, Glu578 and Glu579
With B3, the “ephrin cleavage from the cell surface and internalisation” value is “absent” with HEK293 cells [2] and “blocked” with HEK293 cells [2] (listed as 3A-mutant ADAM10). In addition, the “EGF shedding and uptake into EGF-receptor expressing cells” value with HEK293 cells [4] is listed as “dramatically reduced”.
